Earlier results on one molecule are cited in patent US7723472B2, “Extracellular matrix binding chimeric proteins and methods of use thereof” (The Regents of the University of California, priority 2005, dated 2010).

In general, Km refers to the substrate concentration at which the rate is half of its maximum.

The conditions of this data set: published value for yCD, Kievit et al. 1999.

B1: yCD: Yeast cytosine deaminase (protein, UniProt Q12178 1-158, looked up)
Cytosine deaminase: MVTGGMASKWDQKGMDIAYEEAALGYKEGGVPIGGCLINNKDGSVLGRGHNMRFQKGSATLHGEISTLENCGRLEGKVYKDTTLYTTLSPCDMCTGAIIMYGIPRCVVGENVNFKSKGEKYLQTRGHEVVVVDDERCKKIMKQFIDERPQDWFEDIGE
On to B1, for which the Km is 800 µM and the Vmax is listed as 68 μM/min/μg enzyme.
